Test results: publication PMC3195632

System: His6-H1.4 (unphosphorylated) (human)
Test: EMSA

Question: For 216-bp 601 mononucleosome, which binding signal (% shifted (H1-shifted band)) is on record?
Answer: Its binding signal (% shifted (H1-shifted band)) is 35.9.
